Test results taken from patent US20220064331A1 (Genentech, published 2022).

T1: rat KLB (+N-ter FLAG) (rat, UniProt Q99N32 53-989 (mouse entry))
T1 construct: expressed from KLB cDNA on HEK293T cells and read by FACS
T1 chain: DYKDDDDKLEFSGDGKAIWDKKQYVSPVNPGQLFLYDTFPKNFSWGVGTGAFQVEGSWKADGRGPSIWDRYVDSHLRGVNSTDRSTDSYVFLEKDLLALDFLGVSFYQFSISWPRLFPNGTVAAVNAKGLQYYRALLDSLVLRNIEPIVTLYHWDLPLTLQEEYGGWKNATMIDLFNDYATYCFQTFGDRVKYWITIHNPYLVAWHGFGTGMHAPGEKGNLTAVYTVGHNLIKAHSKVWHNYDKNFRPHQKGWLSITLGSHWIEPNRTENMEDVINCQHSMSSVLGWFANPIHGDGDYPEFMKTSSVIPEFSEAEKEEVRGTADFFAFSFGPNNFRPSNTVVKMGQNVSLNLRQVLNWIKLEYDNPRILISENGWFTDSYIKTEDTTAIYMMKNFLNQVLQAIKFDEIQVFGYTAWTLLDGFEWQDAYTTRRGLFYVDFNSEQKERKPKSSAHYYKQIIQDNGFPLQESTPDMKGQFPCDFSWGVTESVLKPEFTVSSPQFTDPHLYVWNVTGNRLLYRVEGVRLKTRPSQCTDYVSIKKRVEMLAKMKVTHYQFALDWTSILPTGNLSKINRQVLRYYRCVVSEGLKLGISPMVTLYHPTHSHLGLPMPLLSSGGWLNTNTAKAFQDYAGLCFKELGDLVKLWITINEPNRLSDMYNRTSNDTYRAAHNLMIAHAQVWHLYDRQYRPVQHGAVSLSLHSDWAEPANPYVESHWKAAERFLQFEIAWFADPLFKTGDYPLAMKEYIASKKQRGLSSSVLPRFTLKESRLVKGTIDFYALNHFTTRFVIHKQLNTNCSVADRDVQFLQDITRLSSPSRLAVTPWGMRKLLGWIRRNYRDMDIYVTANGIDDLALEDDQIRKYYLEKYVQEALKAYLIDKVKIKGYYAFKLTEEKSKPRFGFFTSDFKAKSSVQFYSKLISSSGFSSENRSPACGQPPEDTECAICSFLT

T2: cynomolgus monkey KLB (+N-ter FLAG) (cynomolgus monkey, UniProt Q86Z14 53-991 (human entry))
T2 construct: expressed from KLB cDNA on HEK293T cells and read by FACS; also called Cyno KLB
T2 chain: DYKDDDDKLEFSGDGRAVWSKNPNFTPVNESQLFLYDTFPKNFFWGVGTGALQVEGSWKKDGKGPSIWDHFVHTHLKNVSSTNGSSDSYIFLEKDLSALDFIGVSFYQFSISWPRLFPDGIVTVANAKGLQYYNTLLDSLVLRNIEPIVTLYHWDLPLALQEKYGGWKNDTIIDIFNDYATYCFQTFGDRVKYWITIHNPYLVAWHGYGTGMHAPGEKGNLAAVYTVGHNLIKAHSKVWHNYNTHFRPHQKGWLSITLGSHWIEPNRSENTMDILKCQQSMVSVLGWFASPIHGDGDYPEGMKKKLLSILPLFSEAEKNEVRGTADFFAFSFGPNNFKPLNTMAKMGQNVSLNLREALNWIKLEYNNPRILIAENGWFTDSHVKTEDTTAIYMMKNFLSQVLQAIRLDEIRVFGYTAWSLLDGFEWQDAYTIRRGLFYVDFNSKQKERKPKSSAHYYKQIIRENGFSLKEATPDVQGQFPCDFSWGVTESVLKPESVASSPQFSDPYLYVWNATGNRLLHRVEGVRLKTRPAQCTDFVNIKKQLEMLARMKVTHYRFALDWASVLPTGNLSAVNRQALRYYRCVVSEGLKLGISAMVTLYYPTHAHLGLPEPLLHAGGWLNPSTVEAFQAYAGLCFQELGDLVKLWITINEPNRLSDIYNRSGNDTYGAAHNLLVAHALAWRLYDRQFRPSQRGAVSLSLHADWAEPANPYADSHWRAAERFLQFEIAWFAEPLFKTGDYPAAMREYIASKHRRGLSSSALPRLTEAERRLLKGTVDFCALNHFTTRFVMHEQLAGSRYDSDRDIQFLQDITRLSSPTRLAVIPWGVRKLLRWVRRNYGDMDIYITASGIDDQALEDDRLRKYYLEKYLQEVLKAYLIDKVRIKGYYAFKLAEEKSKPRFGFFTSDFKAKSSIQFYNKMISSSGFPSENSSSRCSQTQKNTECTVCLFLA

T3: rabbit KLB (+N-ter FLAG) (rabbit)
T3 construct: expressed from KLB cDNA on HEK293T cells and read by FACS
T3 chain: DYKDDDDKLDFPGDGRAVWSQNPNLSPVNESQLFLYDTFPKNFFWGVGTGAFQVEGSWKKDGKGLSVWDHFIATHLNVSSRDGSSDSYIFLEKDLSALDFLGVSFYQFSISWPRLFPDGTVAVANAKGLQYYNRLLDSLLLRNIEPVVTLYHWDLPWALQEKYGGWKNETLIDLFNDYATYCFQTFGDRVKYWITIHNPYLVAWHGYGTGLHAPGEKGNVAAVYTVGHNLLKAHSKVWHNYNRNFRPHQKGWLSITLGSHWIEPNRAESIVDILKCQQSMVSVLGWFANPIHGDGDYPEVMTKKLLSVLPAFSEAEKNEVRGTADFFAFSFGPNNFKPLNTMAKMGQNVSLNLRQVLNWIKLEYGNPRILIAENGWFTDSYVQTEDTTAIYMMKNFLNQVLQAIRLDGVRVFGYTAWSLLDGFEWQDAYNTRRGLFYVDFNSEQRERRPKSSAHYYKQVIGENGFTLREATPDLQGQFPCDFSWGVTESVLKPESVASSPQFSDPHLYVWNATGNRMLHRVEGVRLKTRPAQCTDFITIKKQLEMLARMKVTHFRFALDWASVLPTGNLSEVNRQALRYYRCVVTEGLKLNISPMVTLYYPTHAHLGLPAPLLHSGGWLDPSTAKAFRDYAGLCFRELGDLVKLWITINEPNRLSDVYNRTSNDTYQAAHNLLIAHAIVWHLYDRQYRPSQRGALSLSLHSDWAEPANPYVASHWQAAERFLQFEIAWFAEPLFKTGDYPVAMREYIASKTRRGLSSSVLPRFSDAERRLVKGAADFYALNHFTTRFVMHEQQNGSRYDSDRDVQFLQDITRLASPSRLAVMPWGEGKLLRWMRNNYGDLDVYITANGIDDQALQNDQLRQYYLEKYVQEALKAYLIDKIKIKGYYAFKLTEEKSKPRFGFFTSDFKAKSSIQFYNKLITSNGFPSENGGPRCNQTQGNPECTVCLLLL

B1: 11D4 (antibody, V domains shown)
VH: QVQVKESGPGLVAPSQSLSITCTVSGFSLTNYGVSWIRQPPGKGLEWLGVIWGDGSINYHSALISRLTITKDNSKSQVFLKLNSLEADDTATYYCAKTHDWFDYWGQGTLVTVSA
VL: DIQMTQTPSSLSASLGDRVTINCRASQDISNYFNWYQQKPNGTIKLLIYYTSRLQSGVPSRFSGSGSGTDYSLTISNLEQEDKATYFCHQVRTLPWTFGGGTKLEIK
notes: murine hybridoma-derived anti-KLB antibody; also called KLBmAb5
B2: 6C1 (antibody, V domains shown)
VH: QVQLQQSGDELMKPGASVKISCKVTGNTFSSYWIEWVKQRPGHGLEWIGEILPGSDSTKYVEKFKVKATFTADTSSNTAYMQLSSLTSEDSAVYYCARGGYHYPGWLVYWGQGTLVTVSA
VL: DIVMTQSQKFMSTSVGDRVSVTCKASQNVDSYVAWYQQKAGQSPKPLIYSASYRFSGVPDRFTGSGSGTEFTLTISNVQSEDLAEYFCQQYNISPYTFGGGTKLEIK
notes: murine hybridoma-derived anti-KLB antibody; also called KLBmAb4
B3: 46C3 (antibody, V domains shown)
VH: EVQLQQSGAELVKPGASVKLSCTASDFNIIDTYIHWVKQRPEQGLEWIGRIDPANGNTKYDPKFQDKAALTSDTDSNTAYLLFNSLTSEDTAVYYCARGTSYSWFAYWGQGTLVSVSA
VL: AVLMTQTPLSLPVSLGDQASISCRSSQNIVHSDGNTYLEWYLQKPGQSPKLLIYKVSNRFSGVPDRFSGSGSGRDFTLKISRVEAGDLGVYYCFQGSHVLTFGAGTRLELK
notes: murine hybridoma-derived anti-KLB antibody
B4: 11F1 (antibody, V domains shown)
VH: EVQLVESGGGLVKPGGSLKLSCAPSGFTFSSYGISWVRQTPEKRLEWVATVSSGGRYTYYPDSVKGRFTISRDNAENTLYLQMSSLRSEDTAMYYCTRGGDGYALDYWGQGTSVTVSS
VL: DIQMTQTTSSLSASLGDRVTIICSASQVISNYLNWYQQKPDGTVKLLIYFTSSLRSGVPSRFSGSGSGTDYSLTISNLEPEDVATYFCQQYSKLPWTFGGGTKLELK
notes: as for B3
B5: 14E6 (antibody, V domains shown)
VH: EVPLQQSGPELVKPGATVKISCKPSGDTFTEYTMNWVRQSHGKSLEWIGGINPNNGETSYNQKFKGKATLTVDKSSSTAFMDLRILTSEDSAVYFCARKTTNYWGQGTTLIVSS
VL: DIQMTQSPSSLSASLGERVSLTCRASQEISGYLSWLQQKPDGTIKRLIYAASTLDSGVPRRFSGSRSGSDYSLTISSLESEDFADYYCLQYGSYPWTFGGGTKLELK
notes: as for B3
B6: 21H3 (antibody, V domains shown)
VH: QVQLQQPGAEIVKPGASVRLSCKASGYSFTSYWIHWVKQRPGQGLEWIGEIDPSVSNSNYNQKFKGKATLTADKSSSTAYMQLSGLTSEDSAVYFCVRLGVMVYGSSPFWFAYWGQGTLVTVSA
VL: DIVMTQSQKFMSTSVGDRVSITCKASQFVSDAVAWYQQKPGQSPKLLICSASYRYTGVPDRFTGSGSGTDFTFTISSVRTEDLAVYYCQQHYIVPYTFGGGTTLEIE
notes: as for B3

How the values were obtained:
Test in all cases: FACS on transfected HEK293T cells
rat KLB (+N-ter FLAG) = molecular target: T1, rat KLB (+N-ter FLAG)
Protocol: (§1) Species cross reactivity of the disclosed anti-KLB antibodies were analyzed by FACS analysis using KLB cDNA from mouse, rat, rabbit, cynomolgus monkey and rhesus monkey cloned into pRK mammalian expression vectors transiently transfected into HEK293T cells. The KLB extracellular domain polypeptide sequences that were expressed are as follows: […]

[1] = molecular target: T2, cynomolgus monkey KLB (+N-ter FLAG)
Protocol: as §1

rabbit KLB (+N-ter FLAG) = molecular target: T3, rabbit KLB (+N-ter FLAG)
Protocol: as §1

Binder	binding result (rat KLB (+N-ter FLAG))	binding result [1]	binding result (rabbit KLB (+N-ter FLAG))
B1	no binding	binds	binds
B2	no binding	binds	binds
B3	no binding	no binding	binds
B4	no binding	binds	no binding
B5	binds	binds	binds
B6	no binding	binds	binds
